Data as given in publication PMC2892321.

Target: postsynaptic density 95 (PSD95), wild type (mouse (endogenous in hippocampus and spinal cord)) (UniProt Q62108)
Experiment: co-IP

postsynaptic density 95 (PSD95), wild type (mouse (endogenous in hippocampus and spinal cord)), sequence (Q62108 whole entry): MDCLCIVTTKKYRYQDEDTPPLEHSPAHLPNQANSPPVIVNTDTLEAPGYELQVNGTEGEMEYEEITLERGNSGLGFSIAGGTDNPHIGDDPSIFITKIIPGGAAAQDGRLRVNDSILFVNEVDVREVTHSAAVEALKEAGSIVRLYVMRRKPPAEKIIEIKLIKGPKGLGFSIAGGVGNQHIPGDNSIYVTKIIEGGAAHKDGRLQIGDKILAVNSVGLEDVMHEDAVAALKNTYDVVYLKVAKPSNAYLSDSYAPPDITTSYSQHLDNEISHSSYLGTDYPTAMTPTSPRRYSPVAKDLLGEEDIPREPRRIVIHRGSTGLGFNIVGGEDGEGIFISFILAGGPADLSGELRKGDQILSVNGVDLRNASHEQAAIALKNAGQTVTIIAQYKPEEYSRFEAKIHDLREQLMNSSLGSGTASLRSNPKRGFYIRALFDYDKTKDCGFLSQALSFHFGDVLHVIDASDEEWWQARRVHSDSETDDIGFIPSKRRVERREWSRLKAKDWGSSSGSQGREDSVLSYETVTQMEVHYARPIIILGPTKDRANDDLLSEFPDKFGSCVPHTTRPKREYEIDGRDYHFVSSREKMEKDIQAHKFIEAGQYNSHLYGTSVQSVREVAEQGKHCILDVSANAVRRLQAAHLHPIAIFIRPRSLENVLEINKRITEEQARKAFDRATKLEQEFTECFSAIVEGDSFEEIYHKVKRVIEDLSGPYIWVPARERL

In the case of “phosphatidylinositol-3-kinase-C2α (PI(3)K-C2α) (from UniProt Q61194 1-1686) (enzyme)”, the PI(3)K-C2α/PSD95 ratio (densitometry), ipsilateral to formalin is reported as 0.053 and the PI(3)K-C2α/PSD95 ratio (densitometry), naive is reported as 0.019.
